These results are taken from the supplement of paper PMC5998384.

In series [1] the test system is HeLa Kyoto. Kind of series: solubility in G1/S (NP-40 vs SDS abundance) (log2 ratio); higher = more soluble. Particulars: cell cycle stage: G1/S.
In series [2] the test system is HeLa Kyoto. Kind of series: melting temperature (median over replicates), in situ; higher = more thermally stable.
In series [3] the test system is HeLa Kyoto. Kind of series: solubility change mitosis vs G1/S (difference of NP-40 vs SDS log2 ratios) (log2 ratio difference); higher = more soluble in mitosis.
Series [4] has as its system HeLa Kyoto. Kind of series: thermal stability score vs G1/S (z-score of summed log2 fold changes over temperatures); higher = more thermally stable than in G1/S.
The mark [5] stands for this setting: cell cycle stage: early G1 (4.5 h after nocodazole release).
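Wherever melting temperature (median over replicates), in situ is given: HeLa Kyoto cells synchronized by double thymidine or nocodazole block, proteins quantified by TMT10plex mass spectrometry, three independent biological replicates.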
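Wherever solubility change mitosis vs G1/S (difference of NP-40 vs SDS log2 ratios) is given: synchronized HeLa Kyoto cells (double thymidine block for G1/S, nocodazole release for mitosis), protein amounts in NP-40 versus SDS lysates quantified by mass spectrometry, three biological replicates.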
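Wherever solubility in G1/S (NP-40 vs SDS abundance) is given: HeLa Kyoto cells arrested at G1/S by double thymidine block, proteins quantified by TMT10plex mass spectrometry in mild NP-40 versus SDS extracts, three biological replicates.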
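Wherever thermal stability score vs G1/S (z-score of summed log2 fold changes over temperatures) is given: synchronized HeLa Kyoto cells, proteins quantified by TMT10plex mass spectrometry, three biological replicates, mitosis taken 0.5 h after nocodazole release, G1/S directly after double thymidine block.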

In the case of “MAAPLIPLSQQIPTGNSLYESYYKQVDPAYTGRVGASEAALFLKKSGLSDIILGKIWDLADPEGKGFLDKQGFYVALRLVACAQSGHEVTLSNLNLSMPPPKFHDTSSPLMVTPPSAEAHWAVRVEEKAKFDGIFESLLPINGLLSGDKVKPVLMNSKLPLDVLGRVWDLSDIDKDGHLDRDEFAVAMHLVYRALEKEPVPSALPPSLIPPSKRKKTVFPGAVPVLPASPPPKDSLRSTPSHGSVSSLNSTGSLSPKHSLKQTQPTVNWVVPVADKMRFDEIFLKTDLDLDGYVSGQEVKEIFMHSGLTQNLLAHIWALADTRQTGKLSKDQFALAMYFIQQKVSKGIDPPQVLSPDMVPPSERGTPGPDSSGSLGSGEFTGVKELDDISQEIAQLQREKYSLEQDIREKEEAIRQKTSEVQELQNDLDRETSSLQELEAQKQDAQDRLDEMDQQKAKLRDMLSDVRQKCQDETQMISSLKTQIQSQESDLKSQEDDLNRAKSELNRLQQEETQLEQSIQAGRVQLETIIKSLKSTQDEINQARSKLSQLHESRQEAHRSLEQYDQVLDGAHGASLTDLANLSEGVSLAERGSFGAMDDPFKNKALLFSNNTQELHPDPFQTEDPFKSDPFKGADPFKGDPFQNDPFAEQQTTSTDPFGGDPFKESDPFRGSATDDFFKKQTKNDPFTSDPFTKNPSLPSKLDPFESSDPFSSSSVSSKGSDPFGTLDPFGSGSFNSAEGFADFSQMSKPPPSGPFTSSLGGAGFSDDPFKSKQDTPALPPKKPAPPRPKPPSGKSTPVSQLGSADFPEAPDPFQPLGADSGDPFQSKKGFGDPFSGKDPFVPSSAAKPSKASASGFADFTSVS [EPS15L1]”, in the series with HeLa Kyoto [1], the “solubility in G1/S (log2)” value is 0.43. The melting temperature is 49.6 °C with HeLa Kyoto [2] (cell cycle stage: G1/S) and 51.2 °C with HeLa Kyoto [2] (cell cycle stage: mitosis). Also, the “solubility change mitosis (log2)” value with HeLa Kyoto [3] was -0.0276. The figures for the thermal stability score in the series on HeLa Kyoto [4] (setting [5]) and in the series on HeLa Kyoto [4] (cell cycle stage: mitosis) were 0.244 and 1.69, respectively.

Turning to “MAAQCVTKVALNVSCANLLDKDIGSKSDPLCVLFLNTSGQQWYEVERTERIKNCLNPQFSKTFIIDYYFEVVQKLKFGVYDIDNKTIELSDDDFLGECECTLGQIVSSKKLTRPLVMKTGRPAGKGSITISAEEIKDNRVVLFEMEARKLDNKDLFGKSDPYLEFHKQTSDGNWLMVHRTEVVKNNLNPVWRPFKISLNSLCYGDMDKTIKVECYDYDNDGSHDLIGTFQTTMTKLKEASRSSPVEFECINEKKRQKKKSYKNSGVISVKQCEITVECTFLDYIMGGCQLNFTVGVDFTGSNGDPRSPDSLHYISPNGVNEYLTALWSVGLVIQDYDADKMFPAFGFGAQIPPQWQVSHEFPMNFNPSNPYCNGIQGIVEAYRSCLPQIKLYGPTNFSPIINHVARFAAAATQQQTASQYFVLLIITDGVITDLDETRQAIVNASRLPMSIIIVGVGGADFSAMEFLDGDGGSLRSPLGEVAIRDIVQFVPFRQFQNAPKEALAQCVLAEIPQQVVGYFNTYKLLPPKNPATKQQKQ [CPNE3]”, the “solubility in G1/S (log2)” value in the series on HeLa Kyoto [1] was -0.0447. Moreover, the melting temperature with HeLa Kyoto [2] (cell cycle stage: G1/S) and in the series with HeLa Kyoto [2] (cell cycle stage: mitosis) was 50.8 °C in each case. In addition, in the series with HeLa Kyoto [3], the “solubility change mitosis (log2)” value was -0.146. For the same sequence, the thermal stability score is 1.91 in the series with HeLa Kyoto [4] (setting [5]) and -0.0585 in the series on HeLa Kyoto [4] (cell cycle stage: mitosis).

For the sequence “MAAQKDQQKDAEAEGLSGTTLLPKLIPSGAGREWLERRRATIRPWSTFVDQQRFSRPRNLGELCQRLVRNVEYYQSNYVFVFLGLILYCVVTSPMLLVALAVFFGACYILYLRTLESKLVLFGREVSPAHQYALAGGISFPFFWLAGAGSAVFWVLGATLVVIGSHAAFHQIEAVDGEELQMEPV [RABAC1]”, the “solubility in G1/S (log2)” value with HeLa Kyoto [1] is -0.392. Moreover, the melting temperature stood at 59.6 °C in the series with HeLa Kyoto [2] (cell cycle stage: G1/S) and 58.3 °C in the series on HeLa Kyoto [2] (cell cycle stage: mitosis). Further, the “solubility change mitosis (log2)” value with HeLa Kyoto [3] is -0.0714. For the same sequence, the thermal stability score is -0.0851 in the series with HeLa Kyoto [4] (setting [5]) and -0.547 in the series on HeLa Kyoto [4] (cell cycle stage: mitosis).

On to “MAAQQRDCGGAAQLAGPAAEADPLGRFTCPVCLEVYEKPVQVPCGHVFCSACLQECLKPKKPVCGVCRSALAPGVRAVELERQIESTETSCHGCRKNFFLSKIRSHVATCSKYQNYIMEGVKATIKDASLQPRNVPNRYTFPCPYCPEKNFDQEGLVEHCKLFHSTDTKSVVCPICASMPWGDPNYRSANFREHIQRRHRFSYDTFVDYDVDEEDMMNQVLQRSIIDQ [RNF114]”, for which the “solubility in G1/S (log2)” value with HeLa Kyoto [1] is 0.162. For the same sequence, the melting temperature amounted to 53.2 °C in the series on HeLa Kyoto [2] (cell cycle stage: G1/S) and 53.8 °C in the series on HeLa Kyoto [2] (cell cycle stage: mitosis). In addition, the “solubility change mitosis (log2)” value with HeLa Kyoto [3] turned out to be 0.0396. Besides, the thermal stability score is -2.47 with HeLa Kyoto [4] (setting [5]) and -2.4 in the series with HeLa Kyoto [4] (cell cycle stage: mitosis).
